Source: PMC10127277, “Receptor Elimination by E3 Ubiquitin Ligase Recruitment (REULR): A Targeted Protein Degradation Toolbox” (ACS Synthetic Biology, 2023)

Molecular target: T1, human RNF130 (GOLIATH) extracellular domain (human, UniProt Q86XS8 28-194, biotin (BirA biotinylation))
T1 construct: RNF130 (GOLIATH), human, extracellular domain (ECD); also called RNF130 ECD; source: Expi293F, purified (Ni-NTA, size-exclusion chromatography), biotinylated with BirA; not shown: AVI, C-terminal, kept
T1 sequence (looked up): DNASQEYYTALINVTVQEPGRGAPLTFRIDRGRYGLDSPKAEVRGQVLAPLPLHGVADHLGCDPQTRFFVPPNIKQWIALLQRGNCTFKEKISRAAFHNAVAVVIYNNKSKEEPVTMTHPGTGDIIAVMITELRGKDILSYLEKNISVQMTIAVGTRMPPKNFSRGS
Experiment: SPR; Biacore T100; biotinylated ECD (ligand) captured on a streptavidin (SA) series S chip, ~100-200 RU; non-biotinylated VHH as analyte in HBS-P+ buffer, twofold dilutions from 500 nM (RNF128 E2, RNF130 D1) or 1000 nM (RNF43 C8); injection 60 s at 30 ul/min, dissociation 240 s; regeneration 1 x 10 sec glycine pH 2.5; 1:1 Langmuir model or equilibrium
Details: both partners purified

B1: RNF130-D1 nanobody (VHH)
VHH: QVQLQESGGGLVQAGGSLRLSCAASGTISFIGYMGWYRQAPGKERELVASIASGTSTYYADSVKGRFTISRDNAKNTVYLQMNSLKPEDTAVYYCAATQYIQDVHRYWGQGTQVTVSS
notes: VHH selected from a synthetic yeast-display nanobody library against the human RNF130 ECD; Non-biotinylated analyte in SPR; source: Expi293F, purified (Ni-NTA, size-exclusion chromatography)
- Kd: 6.4 nM
